# From IntAct's records for PubMed 23454188
# B1: GTPase IMAP family member 7 (Homo sapiens), Q8NHV1 (parent)
# chain: MAESEDRSLRIVLVGKTGSGKSATANTILGEEIFDSRIAAQAVTKNCQKASREWQGRDLLVVDTPGLFDTKESLDTTCKEISRCIISSCPGPHAIVLVLLLGRYTEEEQKTVALIKAVFGKSAMKHMVILFTRKEELEGQSFHDFIADADVGLKSIVKECGNRCCAFSNSKKTSKAEKESQVQELVELIEKMVQCNEGAYFSDDIYKDTEERLKQREEVLRKIYTDQLNEEIKLVEEDKHKSEEEKEKEIKLLKLKYDEKIKNIREEAERNIFKDVFNRIWKMLSEIWHRFLSKCKFYSS
# Variants of: B1
# Details: with gima2_human GIMAP2, Q9UG22
# Sequence of gima2_human GIMAP2, Q9UG22 (Q9UG22 whole entry): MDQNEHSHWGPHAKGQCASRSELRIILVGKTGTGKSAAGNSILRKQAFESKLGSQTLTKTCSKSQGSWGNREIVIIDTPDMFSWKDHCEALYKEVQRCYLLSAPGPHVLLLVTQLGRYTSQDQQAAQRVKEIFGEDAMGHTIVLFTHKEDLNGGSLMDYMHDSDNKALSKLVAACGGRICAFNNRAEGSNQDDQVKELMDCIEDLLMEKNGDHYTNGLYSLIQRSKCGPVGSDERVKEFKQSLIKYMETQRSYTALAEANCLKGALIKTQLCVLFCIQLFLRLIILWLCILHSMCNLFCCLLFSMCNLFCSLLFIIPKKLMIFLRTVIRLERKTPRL
row,effect of a mutation on the interaction,Variant
1,disrupting interaction strength,R103D
2,decreasing interaction strength,E136W
